From patent publication US20130209454A1 (CALIFORNIA INSTITUTE OF TECHNOLOGY, published 2013)
Where two headings read alike, the source gives them in different places.

How the values were obtained:
Experiment in all cases: cell-based or functional assay
[1] = target: HIV-1 strain CAP45.2.00.G3 envelope (gp120) (HIV-1)
[2] = target: HIV-1 strain CAP210.2.00.E8 envelope (gp120) (HIV-1)
[3] = target: HIV-1 strain Du172.17 envelope (gp120) (HIV-1)
[4] = target: HIV-1 strain TRO.11 envelope (gp120) (HIV-1)
[5] = target: HIV-1 strain AC10.0.29 envelope (gp120) (HIV-1)
[6] = target: HIV-1 strain SC422661.8 envelope (gp120) (HIV-1)
[7] = target: HIV-1 Env of strain CAP45.2.00.G3 (HIV-1)
[8] = target: HIV-1 Env of strain TRO.11 (HIV-1)
[9] = target: HIV-1 Env of strain QH0692.42 (HIV-1)
[10] = target: HIV-1 Env of strain AC10.0.29 (HIV-1)
[11] = target: HIV-1 Env of strain T257-31 (HIV-1)
[12] = target: HIV-1 Env of strain ZM214M.PL15 (HIV-1)
[13] = target: HIV-1 Env of strain SC422661.8 (HIV-1)
[14] = target: HIV-1 strain CAP45.2.00.G3 envelope (gp120) (HIV-1); remark: listed apart in the source
[15] = target: HIV-1 strain TRO.11 envelope (gp120) (HIV-1); remark: listed apart in the source
[16] = target: HIV-1 strain AC10.0.29 envelope (gp120) (HIV-1); remark: listed apart in the source
[17] = target: HIV-1 strain QH0692.42 envelope (gp120) (HIV-1)
[18] = target: HIV-1 strain T257-31 envelope (gp120) (HIV-1)
[19] = target: HIV-1 strain ZM214M.PL15 envelope (gp120) (HIV-1)
[20] = target: HIV-1 strain SC422661.8 envelope (gp120) (HIV-1); remark: listed apart in the source

| Binder | neutralization IC50 [1] | neutralization IC50 [2] | neutralization IC50 [3] | neutralization IC50 [4] | neutralization IC50 [5] | neutralization IC50 [6] | also measured |
| --- | --- | --- | --- | --- | --- | --- | --- |
| 3BNC55 IgG (antibody, V domains shown) VH: QVQLVQSGTAVKRPGASVRVSCQASGYTFTDYFIYWWRQAPGQGLEWLGWINPLTSQPSYPSRFQGRLTLTRDTFDEMLYMDLRGLRSDDTGIYFCARRHSDYCDFDIWGSGTQIIVSS VL: DIQMTQSPSSLSASVGDKVTITCQTSAGYLNWYQQRRGRAPKLLMYDGSRLVTGVPSRFSGRRWGTQYNLTIGSLQPEDIATYYCQVYEFFGPGTRLDLKS | > 50 µg/mL | > 50 µg/mL | 2 µg/mL | 7.6 µg/mL | > 50 µg/mL | 0.3 µg/mL | – |
| 3BNC60 IgG (antibody, V domains shown) VH: QVHLSQSGAAVTKPGASVRVSCEASGYKISDHFIHWWRQAPGQGLQWVGWINPKTGQPNNPRQFQGRVSLTRQASWDFDTYSFYMDLKAVRSDDTAIYFCARQRSDFWDFDVWGSGTQVTVSS VL: DIQMTQSPSSLSARVGDTVTITCQANGYLNWYQQRRGKAPKLLIYDGSKLERGVPARFSGRRWGQEYNLTINNLQPEDVATYFCQVYEFIVPGTRLDLKRTVA | 10 µg/mL | 4.7 µg/mL | 0.05 µg/mL | 0.07 µg/mL | 13 µg/mL | 0.1 µg/mL | – |
| 3BNC117 IgG (antibody, V domains shown) VH: QVQLLQSGAAVTKPGASVRVSCEASGYNIRDYFIHWWRQAPGQGLQWVGWINPKTGQPNNPRQFQGRVSLTRHASWDFDTFSFYMDLKALRSDDTAVYFCARQRSDYWDFDVWGSGTQVTVSS VL: DIQMTQSPSSLSASVGDTVTITCQANGYLNWYQQRRGKAPKLLIYDGSKLERGVPSRFSGRRWGQEYNLTINNLQPEDIATYFCQVYEFVVPGTRLDLKRTVA | 16 µg/mL | 11 µg/mL | 0.04 µg/mL | 0.6 µg/mL | 6.5 µg/mL | 0.07 µg/mL | – |
| 12A12 IgG (antibody, V domains shown) VH: SQHLVQSGTQVKKPGASVRISCQASGYSFTDYVLHWWRQAPGQGLEWMGWIKPVYGARNYARRFQGRINFDRDIYREIAFMDLSGLRSDDTALYFCARDGSGDDTSWHLDPWGQGTLVIVSA VL: DIQMTQSPSSLSASVGDRVTITCQAGQGIGSSLQWYQQKPGKAPKLLVHGASNLHRGVPSRFSGSGFHTTFSLTISGLQRDDFATYFCAVLEFFGPGTKVEIKR | 0.4 µg/mL | > 50 µg/mL | 0.2 µg/mL | 0.3 µg/mL | 0.6 µg/mL | 0.2 µg/mL | – |
| NIH45-46 Δ99a-99d IgG (antibody, V domains shown) VH: QVRLSQSGGQMKKPGESMRLSCRASGYEFLNCPINWIRLAPGRRPEWMGWLKPRGGAVNYARKFQGRVTMTRDVYSDTAFLELRSLTSDDTAVYFCTRGKYCTYNWDFEHWGRGAPVTVSS VL: EIVLTQSPATLSLSPGETAIISCRTSQSGSLAWYQQRPGQAPRLVIYSGSTRAAGIPDRFSGSRWGADYNLSISNLESGDFGVYYCQQYEFFGQGTKVQVDI | – | – | – | – | – | – | neutralization IC50 [7]: > 50 µg/mL; neutralization IC50 [8]: > 50 µg/mL; neutralization IC50 [9]: 3.7 µg/mL; neutralization IC50 [10]: 13 µg/mL; neutralization IC50 [11]: 7 µg/mL; neutralization IC50 [12]: 2.2 µg/mL; neutralization IC50 [13]: 1.4 µg/mL |
| NIH45-46 heavy chain paired with the VRC01 light chain (IgG) (antibody, V domains shown) VH: QVRLSQSGGQMKKPGESMRLSCRASGYEFLNCPINWIRLAPGRRPEWMGWLKPRGGAVNYARKFQGRVTMTRDVYSDTAFLELRSLTSDDTAVYFCTRGKYCTARDYYNWDFEHWGRGAPVTVSS VL: EIVLTQSPGTLSLSPGETAIISCRTSQYGSLAWYQQRPGQAPRLVIYSGSTRAAGIPDRFSGSRWGPDYNLTISNLESGDFGVYYCQQYEFFGQGTKVQVDI | – | – | – | – | – | – | neutralization IC50 [14]: 2.1 µg/mL; neutralization IC50 [15]: 0.3 µg/mL; neutralization IC50 [16]: 1 µg/mL; neutralization IC50 [17]: 0.9 µg/mL; neutralization IC50 [18]: 0.6 µg/mL; neutralization IC50 [19]: 0.6 µg/mL; neutralization IC50 [20]: 0.2 µg/mL |
